Measured values: the supplement of paper PMC12667976

B1: library; numbered along this chain (parent)
chain: MATDAALRRLLRLHRTEIAVAVDSAFPLLHALADHDVVPEDKFQETLHLKEKEGCPQAFHALLSWLLTQDSTAILDFWRVLFKDYNLERYGRLQPILDSFPKDVDLSQPRKGRKPPAVPKALVPPPRLPTKRKASEEARAAAPAALTPRGTASPGSQLKAKPPKKPESSAEQQRLPLGNGIQTMSASVQRAVAMSSGDVPGARGAVEGILIQQVFESGGSKKCIQVGGEFYTPSKFEDSGSGKNKARSSSGPKPLVRAKGAQGAAPGGGEARLGQQGSVPAPLALPSDPQLHQKNEDECAVCRDGGELICCDGCPRAFHLACLSPPLREIPSGTWRCSSCLQATVQEVQPRAEEPRPQEPPVETPLPPGLRSAGEEVRGPPGEPLAGMDTTLVYKHLPAPPSAAPLPGLDSSALHPLLCVGPEGQQNLAPGARCGVCGDGTDVLRCTHCAAAFHWRCHFPAGTSRPGTGLRCRSCSGDVTPAPVEGVLAPSPARLAPGPAKDDTASHEPALHRDDLESLLSEHTFDGILQWAIQSMARPAAPFPS

Variants of: B1
Test: AIRE transcriptional activation functional score (insulin promoter-GFP; nonsense median 0, synonymous median 1) (normalised score); higher = higher AIRE activity (more reporter activation)
Details: with insulin promoter-GFP reporter in HEK293
Summary of the method: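 Functional scores come from comparing select with non-select enrichment of each variant and subtracting wild type. Codon-optimized AIRE NNN-codon libraries across three regions were integrated via Bxb1 recombinase into HEK293 landing-pad cells with an insulin core promoter-GFP reporter, and integrants sorted at day 7 were expanded 7 days before top 10% GFP and unselected populations were tile-sequenced. Variants needed 10 counts per million in non-select, and values were rescaled to nonsense median 0 and synonymous median 1 before averaging over biological replicates.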

AIRE transcriptional activation functional score: each site, then its substitutions
E508: S 0.0376 | V 0.577 | R 0.154 | W 0.888 | Q 1.03 | T 0.822 | Y 0.92 | P 0.813
E522: W -1.23 | C 0.0951 | L -0.299 | R -0.0906 | T -0.656 | S 0.0236 | G 0.352 | Q 1.03 | A -0.0825 | I 0.133 | F 0.252 | K 0.503 | V 0.236 | D 0.925
H512: T 0.649 | L 0.941 | I 1.1 | A 0.977 | W 1.06 | R 0.445 | V 1.35 | Q 0.273 | N 1.02 | S 0.923 | G 0.716 | C -0.3 | D 0.939 | F 1.21 | M 0.439 | Y 0.777 | P 1.09 | K 0.572
I528: G 0.149 | Y 0.65 | R 0.161 | T 0.117 | V 0.759 | S -0.0342 | Q 0.209 | E 0.137 | W 1 | L 0.543 | K -0.0103 | P 0.0858 | C 0.179 | H -0.237 | F 0.795 | A 0.0102 | N 0.204 | D 0.302 | M 0.456
L516: A 0.556 | I 0.97 | T 0.362 | W 0.496 | Y 1.01 | K 0.259 | D 0.758 | R 0.262 | V 0.832 | N 0.207 | E -0.232 | H 0.715 | S 0.564 | C 0.678 | Q 0.292 | G 0.562 | F 1.48 | P 0.365
F525: N -0.231 | S -0.595 | C 0.0978 | L 0.45 | I 0.367 | R -0.845 | Y 0.369 | A 0.406 | P 0.141 | D 0.0868 | V 0.609 | H -0.0452 | E -1.43 | T -0.259 | Q -0.479 | G 0.0436
A510: P 1.35 | Y 0.861 | L 1.04 | H 0.605 | E 1.33 | F 0.578 | I -0.237 | R 0.323 | V 1.09 | C 1.24 | W 0.663 | Q 0.851 | M 1.37 | G 0.977 | S 0.921 | T 0.933 | K 0.165
L519: S 0.255 | P 0.517 | W 0.904 | T 0.239 | Q 0.698 | C 0.313 | R 0.267 | A 0.739 | E 0.874 | H -0.138 | D 0.255 | F 0.808 | M 0.992 | Y 1.11 | N -0.347 | V 0.315 | G 0.259 | I 0.439
G527: N 0.999 | M 0.725 | H 0.494 | S 0.639 | F -0.224 | C 0.656 | A 0.391 | I 1.02 | R 0.305 | V 0.0961 | L 0.0948 | K 0.173 | W 0.875
T524: H -0.0688 | G 0.619 | C 1.47 | F 0.0783 | S 1.61 | V 0.353 | Q 0.0994 | I 0.0345 | M -0.346 | W 0.629 | Y 1.4 | L -0.065 | A 0.636 | R 0.214 | K 0.256 | P 0.528
D526: R -0.505 | C -0.576 | A 0.225 | E 0.925 | S -0.0693 | P -0.403 | F 0.421 | N 0.21 | W -0.427 | I 0.298 | K 0.177 | V -0.011 | L -0.764 | Y 1.02 | T -0.207 | G 0.346
P509: R 0.805 | E 1.16 | C 0.247 | L 0.827 | T 0.871 | A 0.736 | H 0.506 | F 1.17 | N 0.827 | K 0.522 | W 0.591 | V 1.14 | I 1.21 | Q 1.12 | Y 1.11 | S 1.16 | M 1.65 | G 1.11
H523: N 1.28 | S 1.25 | F 0.43 | C -0.042 | V 0.847 | D 0.678 | K 0.199 | I 0.286 | R -0.128 | T 1.37 | L 0.222 | G 1.65 | W -0.242 | Q 0.954 | Y 1.33
E517: Q 0.0484 | A -0.0659 | Y 0.524 | S -0.144 | K -0.0484 | L 0.0571 | D 1.25 | V 0.207 | H 0.164 | I 0.0464 | R 0.985 | G 0.693
S521: M 0.76 | G 0.548 | V 0.258 | C 0.241 | N 0.923 | F 0.695 | L 0.969 | I 0.551 | R 0.245 | Q 0.377 | T 1.08 | K -0.211 | A 0.824 | W 0.299
R513: S 0.587 | V 0.873 | N 0.0982 | P 0.55 | C 0.777 | G -0.188 | Y 1.28 | W 0.733 | K 0.902 | I 1.44 | E -0.344 | H 0.0273 | T 1.17 | F 1.18 | L 0.882 | D 0.928 | M 1.01
D514: N 0.242 | F 0.299 | V 0.335 | G 0.3 | Q -0.128 | P -0.178 | R 0.191 | T 0.26 | M 0.515 | K -0.0487 | I -0.186 | W -0.252 | H 0.52 | A 0.214 | S 0.341 | Y 0.351 | L 0.0834 | C 0.246 | E 0.931
L520: H 0.344 | I 1.23 | S -0.11 | K 0.452 | Q 0.36 | T 0.23 | C 0.467 | E 0.103 | D 0.849 | F 0.794 | R 0.181 | A 0.276 | P -0.00959 | G 0.375 | V 0.478
S518: K 1.27 | W 0.848 | I 0.907 | V 1.12 | P 0.384 | N 0.216 | L 1.04 | R 0.342 | C 0.672 | Y 1.3 | Q 1.77 | A 0.775 | G 0.666 | F 1.2 | H 0.981 | T 1.51
D515: A -0.0405 | F 0.156 | Q 0.723 | H 0.453 | L -0.215 | W -0.15 | V 0.106 | P 0.67 | T 0.0981 | M -0.0216 | K -0.501 | Y 0.405 | C 0.503 | R -0.0862 | I 0.101 | E 1.18 | G 0.421 | N 0.626 | S 0.474
L511: Y 1.19 | G 0.805 | R 0.813 | I 0.739 | S 0.682 | F 0.864 | H 0.98 | W 1.02 | V 0.838 | Q 0.142 | A 0.757 | C 0.201 | K -0.311 | M 0.699 | T 0.121 | P 0.736
